According to the Immune Epitope Database (IEDB):

What was measured:
Assay in all cases: IEDB peptide-MHC binding, purified MHC/competitive/fluorescence; filed as Kd, often an IC50 or EC50 that approximates it; ≥ and ≤ were set here for values at or beyond the usual limits of such assays
Settings in all cases: source organism: Rickettsia akari str. Hartford
HLA-A*01:01 = molecular target: HLA-A*01:01
HLA-A*02:01 = molecular target: HLA-A*02:01
HLA-A*02:03 = molecular target: HLA-A*02:03
HLA-A*02:12 = molecular target: HLA-A*02:12
HLA-A*02:16 = molecular target: HLA-A*02:16
HLA-A*02:19 = molecular target: HLA-A*02:19
HLA-A*23:01 = molecular target: HLA-A*23:01
HLA-A*24:03 = molecular target: HLA-A*24:03
HLA-A*26:01 = molecular target: HLA-A*26:01
HLA-A*29:02 = molecular target: HLA-A*29:02
HLA-A*30:01 = molecular target: HLA-A*30:01
HLA-A*30:02 = molecular target: HLA-A*30:02
HLA-A*66:01 = molecular target: HLA-A*66:01
HLA-A*68:02 = molecular target: HLA-A*68:02
HLA-B*15:01 = molecular target: HLA-B*15:01
HLA-B*27:03 = molecular target: HLA-B*27:03
HLA-B*27:05 = molecular target: HLA-B*27:05
HLA-B*39:01 = molecular target: HLA-B*39:01
HLA-B*40:01 = molecular target: HLA-B*40:01
HLA-B*44:02 = molecular target: HLA-B*44:02
HLA-B*46:01 = molecular target: HLA-B*46:01
HLA-B*51:01 = molecular target: HLA-B*51:01
HLA-B*53:01 = molecular target: HLA-B*53:01
HLA-B*57:01 = molecular target: HLA-B*57:01

For FTARIIIFS, the Kd (HLA-A*01:01) was at least 5 µM, the Kd (HLA-A*02:01) was at least 20 µM and the Kd (HLA-A*02:03) was at least 20 µM. The Kd (HLA-A*02:12) was at least 20 µM, the Kd (HLA-A*02:16) was at least 20 µM and the Kd (HLA-A*02:19) was at least 20 µM. It also gave a Kd (HLA-A*23:01) of at least 20 µM, a Kd (HLA-A*24:03) of at least 20 µM and a Kd (HLA-A*26:01) of at least 20 µM. The Kd (HLA-A*29:02) was at least 20 µM, the Kd (HLA-A*30:01) was at least 5 µM and the Kd (HLA-A*30:02) was at least 5 µM. For the same sequence, the Kd (HLA-A*66:01) was 3 µM, the Kd (HLA-A*68:02) was 0.0276 µM and the Kd (HLA-B*15:01) was at least 20 µM. The Kd (HLA-B*27:03) was at least 20 µM, the Kd (HLA-B*27:05) was at least 5 µM and the Kd (HLA-B*39:01) was at least 20 µM. It also gave a Kd (HLA-B*40:01) of at least 5 µM, a Kd (HLA-B*44:02) of at least 5 µM and a Kd (HLA-B*46:01) of at least 20 µM. It also gave a Kd (HLA-B*51:01) of at least 20 µM, a Kd (HLA-B*53:01) of at least 5 µM and a Kd (HLA-B*57:01) of at least 20 µM.
